Test results as given in paper PMC8401544, “Cytotoxicity of Frutalin on Distinct Cancer Cells Is Independent of Its Glycosylation” (Molecules, 2021).

Molecular target: the molecule itself
Assay: dynamic light scattering; protein at 0.8-1.0 mg/mL in phosphate buffer, room temperature, filtered through 0.45 um; size distribution by intensity; measured diameter compared with that expected from the theoretical MW of a tetramer

| Protein | stoichiometry N |
| --- | --- |
| Frutalin produced in E. coli cleaved from TrxFTL (cFTL) (natural protein, Artocarpus incisa, residues left after TEV cleavage (GA) and MG from the cloning restriction site; not glycosylated; 17421.61 Da by calculation; also called cleaved FTL; FTL cleaved from TrxFTL; source: E. coli BL21(DE3) (NZYBL21), purified (IMAC, TEV digestion, reverse IMAC on Ni-NTA); not shown: TrxA, N-terminal, cleaved; His6, N-terminal, cleaved) GAMGNQQSGKSQTVIVGPWGAKVSTSSNGKAFDDGAFTGIREINLSYNKETAIGDFQVVYDLNGSPYVGQNHKSFITGFTPVKISLDFPSEYIMEVSGYTGNVSGYVVVRSLTFKTNKKTYGPYGVTSGTPFNLPIENGLIVGFKGSIGYWLDYFSMYLSL | 4 |
| Frutalin produced in E. coli in fusion with TrxA (TrxFTL) (natural protein, Artocarpus incisa, 13 extra amino acids between the 6xHistag and frutalin; not glycosylated; Vector pETM20; also called FTL in fusion with TrxA; source: E. coli BL21(DE3) (NZYBL21), purified (IMAC, Nickel HisTrap); not shown: TrxA, N-terminal, kept; His6, internal (between TrxA and the TEV recognition site), kept) SSGENLYFQGAMGNQQSGKSQTVIVGPWGAKVSTSSNGKAFDDGAFTGIREINLSYNKETAIGDFQVVYDLNGSPYVGQNHKSFITGFTPVKISLDFPSEYIMEVSGYTGNVSGYVVVRSLTFKTNKKTYGPYGVTSGTPFNLPIENGLIVGFKGSIGYWLDYFSMYLSL | 4 |
